From the supplement of paper PMC10126150
± gives the standard deviation of the averaged measurements.

System: ATP
Test: switch fluorescence ratio, 500 uM ATP over buffer (Cy3 cluster intensity, sum of 5 cycles each) (fold (ratio)); higher = stronger signal-on switching upon ATP binding; sequences stand for … in TCGTCGGCAGCGTCAGATGTGTATAAGAGACAGTTTTTTTTTTTTTTTTTTTTTTTTT…TC
Details: aptamer strand: ATP DNA aptamer (quencher-CACCTGGGGGAGTATTGCGGAGGAAGG + anchor), 100 nM annealed; ATP concentration: 500 uM
Procedure, shortened: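 Values give the fluorescence ratio for each switch-domain sequence, averaged from per-cluster ratios of summed target-cycle to summed buffer-cycle Cy3 intensity. The Cy3-labelled switching-strand clusters sat on a modified Illumina MiSeq flow-cell, were annealed to 100 nM quencher-labelled ATP aptamer, and were imaged in selection buffer, then after 15 min with 500 uM ATP at 22 °C. Five cycles ran with NaOH stripping and re-annealing between them, and clusters outside 100-1000 RFU were excluded.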
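Note: ATP exposure 15 min at 22 °C before imaging.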

Row | Sequence | switch fluorescence ratio
1 | TGAGTTGGTT | 0.973 ± 0.026
2 | TGAGTTGTTT | 0.985 ± 0.013
3 | TGAGTTTGCG | 1.01 ± 0.075
4 | TGAGTTTTAG | 0.972 ± 0.031
5 | TGAGTTTTTT | 0.982 ± 0.039
6 | TGATAAATGT | 1.13 ± 0.19
7 | TGATAACTCC | 1.03 ± 0.036
8 | TGATAAGGAG | 1.01 ± 0.012
9 | TGATACTGAT | 1.02 ± 0.058
10 | TGATAGATGC | 1.03 ± 0.025
11 | TGATAGGGAG | 0.982 ± 0.019
12 | TGATAGGGGA | 1.01 ± 0.047
13 | TGATAGTCCT | 1.03 ± 0.013
14 | TGATATACTG | 0.968 ± 0.026
15 | TGATATGTAA | 1.021 ± 0.0094
16 | TGATATTGAG | 1 ± 0.045
17 | TGATATTTTT | 0.998 ± 0.028
18 | TGATCAGGAG | 0.9853 ± 0.0053
19 | TGATCATCTA | 0.993 ± 0.024
20 | TGATCGGCGG | 1.02 ± 0.05
21 | TGATCGGGGA | 1.028 ± 0.0063
22 | TGATCGGGTA | 1 ± 0.011
23 | TGATCTCTTT | 1.03 ± 0.049

Row | Sequence | switch fluorescence ratio
24 | TGATCTGGGG | 1.01 ± 0.033
25 | TGATGAGATT | 0.999 ± 0.02
26 | TGATGAGCTC | 0.983 ± 0.02
27 | TGATGAGTCT | 1.03 ± 0.062
28 | TGATGATTTT | 0.945 ± 0.017
29 | TGATGCGGAT | 1.016 ± 0.0013
30 | TGATGCTTCA | 1 ± 0.037
31 | TGATGGAGAG | 0.97 ± 0.034
32 | TGATGGAGGC | 1.01 ± 0.013
33 | TGATGGCCTG | 0.986 ± 0.067
34 | TGATGGCGGG | 0.9917 ± 0.0042
35 | TGATGGCGGT | 1.04 ± 0.065
36 | TGATGGGCAG | 1.01 ± 0.047
37 | TGATGGGGAT | 1.03 ± 0.017
38 | TGATGGGGGA | 1.01 ± 0.03
39 | TGATGGGGTA | 1.04 ± 0.019
40 | TGATGGGTGC | 1.04 ± 0.045
41 | TGATGGGTTA | 0.962 ± 0.029
42 | TGATGGTATA | 1.01 ± 0.025
43 | TGATGGTGGG | 0.979 ± 0.029
44 | TGATGGTGTC | 0.968 ± 0.011
45 | TGATGTCCGT | 0.997 ± 0.02
46 | TGATGTCGGG | 0.999 ± 0.034

Row | Sequence | switch fluorescence ratio
47 | TGATGTGAAA | 0.977 ± 0.015
48 | TGATGTTGT | 1.005 ± 0.0071
49 | TGATTAAGGG | 0.9752 ± 0.0072
50 | TGATTACAGT | 1 ± 0.018
51 | TGATTAGGGG | 0.9948 ± 0.0096
52 | TGATTCAGTA | 0.974 ± 0.011
53 | TGATTCTAAT | 1 ± 0.042
54 | TGATTGAATG | 0.9785 ± 0.001
55 | TGATTGACGG | 0.975 ± 0.015
56 | TGATTGAGGA | 0.981 ± 0.027
57 | TGATTGATAT | 1.01 ± 0.012
58 | TGATTGCCCG | 0.9376 ± 0.0077
59 | TGATTGCTAT | 1.01 ± 0.039
60 | TGATTGGGCT | 1.03 ± 0.015
61 | TGATTGGGGA | 1.005 ± 0.0043
62 | TGATTGGGTT | 0.975 ± 0.022
63 | TGATTGGTTT | 1 ± 0.011
64 | TGATTGTGAA | 1 ± 0.024
65 | TGATTTAGAG | 0.998 ± 0.013
66 | TGATTTAGTT | 0.989 ± 0.02
67 | TGATTTGCGA | 0.987 ± 0.02
68 | TGATTTTACC | 1.06 ± 0.015
69 | TGATTTTAGG | 0.9832 ± 0.0061

Row | Sequence | switch fluorescence ratio
70 | TGATTTTCGT | 1 ± 0.044
71 | TGCAAAAGGT | 1.02 ± 0.087
72 | TGCAAAGGGG | 1.01 ± 0.029
73 | TGCAAGAGTG | 1.03 ± 0.011
74 | TGCAATCGGT | 1.22 ± 0.065
75 | TGCAATTACT | 3.21 ± 0.24
76 | TGCAATTGGT | 1.01 ± 0.016
77 | TGCACAAGAT | 1.02 ± 0.011
78 | TGCACCATTT | 1.02 ± 0.014
79 | TGCACGGGGG | 1.03 ± 0.013
80 | TGCACTGTTT | 1.01 ± 0.038
81 | TGCACTTTTA | 1.01 ± 0.02
82 | TGCAGAAAAT | 1.01 ± 0.036
83 | TGCAGACGGT | 1.2 ± 0.14
84 | TGCAGCTGGT | 0.98 ± 0.021
85 | TGCAGGGTTT | 0.9906 ± 0.0082
86 | TGCAGGTTAC | 1.12 ± 0.015
87 | TGCAGTAGTT | 1.012 ± 0.005
88 | TGCAGTCATG | 0.995 ± 0.03
89 | TGCAGTGATC | 1.11 ± 0.056
90 | TGCAGTGTGC | 1.01 ± 0.015
91 | TGCAGTGTGG | 1.005 ± 0.0078
92 | TGCATAAATT | 0.9873 ± 0.0034

Row | Sequence | switch fluorescence ratio
93 | TGCATAACGT | 1.02 ± 0.024
94 | TGCATCAATA | 1.03 ± 0.039
95 | TGCATCATTG | 0.988 ± 0.039
96 | TGCATGATTG | 0.967 ± 0.02
97 | TGCATGGGTG | 1.06 ± 0.039
98 | TGCATGTACA | 1.04 ± 0.037
99 | TGCATTAGGA | 1.02 ± 0.024
100 | TGCATTCGTT | 1.008 ± 0.009
101 | TGCATTGGGC | 1.03 ± 0.013
102 | TGCATTGGGG | 1 ± 0.024
103 | TGCCACGCTC | 1.06 ± 0.029
104 | TGCCACTCCT | 1.0495 ± 4.1e-05
105 | TGCCATAGG | 1.008 ± 0.0032
106 | TGCCATCCGA | 1.09 ± 0.054
107 | TGCCATGACG | 0.936 ± 0.046
108 | TGCCATTGGG | 1.08 ± 0.12
109 | TGCCCATAGT | 1.009 ± 0.003
110 | TGCCCCACGT | 1.17 ± 0.16
111 | TGCCGCAGAG | 1.6 ± 0.16
112 | TGCCGGGAGT | 1.41 ± 0.61
113 | TGCCGTAGGG | 1.04 ± 0.041
114 | TGCCGTAGTC | 0.9685 ± 0.0092
115 | TGCCGTTCTT | 1 ± 0.021

Row | Sequence | switch fluorescence ratio
116 | TGCCGTTTGG | 1 ± 0.03
117 | TGCCTATGGA | 1 ± 0.014
118 | TGCCTCTAGA | 1.1 ± 0.044
119 | TGCGAAAGAT | 1.05 ± 0.086
120 | TGCGAACCTT | 1.71 ± 0.12
121 | TGCGAAGGGT | 0.9856 ± 0.0046
122 | TGCGAAGGTT | 1.04 ± 0.069
123 | TGCGACGAGG | 1.04 ± 0.0011
124 | TGCGATGCGG | 0.979 ± 0.037
125 | TGCGCCCGTT | 1 ± 0.033
126 | TGCGCCGTTT | 1.01 ± 0.017
127 | TGCGCCTGGG | 1.03 ± 0.013
128 | TGCGCGAAAG | 0.98 ± 0.042
129 | TGCGCTTTTT | 1.03 ± 0.061
130 | TGCGGCTG | 1.05 ± 0.039
131 | TGCGGGAGGG | 1.26 ± 0.35
132 | TGCGGGGGGG | 1.03 ± 0.038
133 | TGCGGTAGGT | 0.991 ± 0.018
134 | TGCGGTGACC | 1 ± 0.014
135 | TGCGGTGTCG | 1.06 ± 0.083
136 | TGCGGTTATG | 1.07 ± 0.051
137 | TGCGGTTTTT | 0.998 ± 0.02
138 | TGCGTACTAT | 1.06 ± 0.1

Row | Sequence | switch fluorescence ratio
139 | TGCGTAGGAA | 1.061 ± 0.0049
140 | TGCGTATTTT | 1.025 ± 0.0031
141 | TGCGTCAGGC | 1.09 ± 0.045
142 | TGCGTTAAAA | 0.994 ± 0.042
143 | TGCGTTCAAG | 0.9721 ± 0.0056
144 | TGCGTTCGGC | 0.963 ± 0.041
145 | TGCGTTGCTA | 0.996 ± 0.038
146 | TGCTAACAGG | 1.022 ± 0.0078
147 | TGCTAGAACT | 0.972 ± 0.019
148 | TGCTAGGGTC | 0.994 ± 0.025
149 | TGCTAGGTCA | 0.969 ± 0.0059
150 | TGCTATGGGG | 1 ± 0.016
151 | TGCTATGGGT | 0.975 ± 0.023
152 | TGCTCCGTCG | 1.2 ± 0.039
153 | TGCTCCTTCT | 1.09 ± 0.011
154 | TGCTCTGGGG | 0.996 ± 0.015
155 | TGCTCTTTGG | 1 ± 0.025
156 | TGCTCTTTTT | 1 ± 0.019
157 | TGCTGGCGGC | 0.982 ± 0.03
